Assay results taken from patent US20160091500.

Tested on: T1, intact chondroadherin (CHAD) polypeptide, human
T1 sequence: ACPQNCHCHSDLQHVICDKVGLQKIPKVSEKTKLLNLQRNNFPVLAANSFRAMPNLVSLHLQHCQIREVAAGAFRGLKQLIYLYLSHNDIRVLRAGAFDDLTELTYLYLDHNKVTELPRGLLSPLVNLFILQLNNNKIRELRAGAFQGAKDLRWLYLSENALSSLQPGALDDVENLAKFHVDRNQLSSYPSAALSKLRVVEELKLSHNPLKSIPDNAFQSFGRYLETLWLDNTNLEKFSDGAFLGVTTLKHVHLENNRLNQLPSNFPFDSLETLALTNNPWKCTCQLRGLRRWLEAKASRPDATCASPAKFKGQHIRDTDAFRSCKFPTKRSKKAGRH

Sequence of MMP-12 (P39900 106-470): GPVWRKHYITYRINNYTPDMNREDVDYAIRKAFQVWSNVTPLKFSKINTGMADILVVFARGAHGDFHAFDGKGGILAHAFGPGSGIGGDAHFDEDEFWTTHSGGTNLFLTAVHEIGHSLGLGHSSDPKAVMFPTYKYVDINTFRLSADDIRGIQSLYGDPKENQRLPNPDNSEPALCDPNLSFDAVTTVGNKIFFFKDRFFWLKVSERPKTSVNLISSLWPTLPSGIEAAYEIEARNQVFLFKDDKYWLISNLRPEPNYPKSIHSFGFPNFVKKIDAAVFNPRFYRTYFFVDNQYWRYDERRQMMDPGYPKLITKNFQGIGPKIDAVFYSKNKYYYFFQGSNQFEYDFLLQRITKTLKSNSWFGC

Molecule	CHAD fragmentation after protease digestion of normal disc tissue (SDS-PAGE, immunoblot)
ADAMTS5	digestions performed with ADAMTS4 and ADAMTS5 also did not generate CHAD fragments
MMP-3	Digestion with MMPs 3, 7, 12 and 13, showed no evidence of CHAD fragments retained in the tissue
MMP-13	Digestion with MMPs 3, 7, 12 and 13, showed no evidence of CHAD fragments retained in the tissue
Recombinant cathepsin B	Digestions performed with cathepsins B and L showed extensive degradation of CHAD
Recombinant cathepsin L	Digestions performed with cathepsins B and L showed extensive degradation of CHAD
MMP-12	Digestion with MMPs 3, 7, 12 and 13, showed no evidence of CHAD fragments retained in the tissue
Recombinant cathepsin K (enzyme, UniProt P43235 115-329, looked up, species assumed) Cathepsin K: APDSVDYRKKGYVTPVKNQGQCGSCWAFSSVGALEGQLKKKTGKLLNLSPQNLVDCVSENDGCGGGYMTNAFQYVQKNRGIDSEDAYPYVGQEESCMYNPTGKAAKCRGYREIPEGNEKALKRAVARVGPVSVAIDASLTSFQFYSKGVYYDESCNSDNLNHAVLAVGYGIQKGNKHWIIKNSWGENWGNKGYILMARNKNNACGIANLASFPKM	cathepsin K generated a CHAD fragment large enough to be retained in the gel and similar in size to that generated in situ
MMP-7 (enzyme, UniProt P09237 95-267, looked up, species assumed) Matrilysin: YSLFPNSPKWTSKVVTYRIVSYTRDLPHITVDRLVSKALNMWGKEIPLHFRKVVWGTADIMIGFARGAHGDSYPFDGPGNTLAHAFAPGTGLGGDAHFDEDERWTDGSSLGINFLYAATHELGHSLGMGHSSDPNAVMYPTYGNGDPQNFKLSQDDIKGIQKLYGKRSNSRKK	Digestion with MMPs 3, 7, 12 and 13, showed no evidence of CHAD fragments retained in the tissue
ADAMTS4 (enzyme, UniProt O75173 213-837, looked up, species assumed) A disintegrin and metalloproteinase with thrombospondin motifs 4: FASLSRFVETLVVADDKMAAFHGAGLKRYLLTVMAAAAKAFKHPSIRNPVSLVVTRLVILGSGEEGPQVGPSAAQTLRSFCAWQRGLNTPEDSDPDHFDTAILFTRQDLCGVSTCDTLGMADVGTVCDPARSCAIVEDDGLQSAFTAAHELGHVFNMLHDNSKPCISLNGPLSTSRHVMAPVMAHVDPEEPWSPCSARFITDFLDNGYGHCLLDKPEAPLHLPVTFPGKDYDADRQCQLTFGPDSRHCPQLPPPCAALWCSGHLNGHAMCQTKHSPWADGTPCGPAQACMGGRCLHMDQLQDFNIPQAGGWGPWGPWGDCSRTCGGGVQFSSRDCTRPVPRNGGKYCEGRRTRFRSCNTEDCPTGSALTFREEQCAAYNHRTDLFKSFPGPMDWVPRYTGVAPQDQCKLTCQAQALGYYYVLEPRVVDGTPCSPDSSSVCVQGRCIHAGCDRIIGSKKKFDKCMVCGGDGSGCSKQSGSFRKFRYGYNNVVTIPAGATHILVRQQGNPGHRSIYLALKLPDGSYALNGEYTLMPSPTDVVLPGAVSLRYSGATAASETLSGHGPLAQPLTLQVLVAGNPQDTRLRYSFFVPRPTPSTPRPTPQDWLHRRAQILEILRRRPWAGRK	digestions performed with ADAMTS4 and ADAMTS5 also did not generate CHAD fragments
